We go through one substance from patent publication US7479482B2 (priority 2001, dated 2009).

Data set [1] is classed as physicochemical.
The subject of the next data set is Tg2576 mice. To be noted: mouse, in vivo.
For data set [2], the system named is human neuroblastoma cell line (SK-N-SH).

Where two headings read alike, the source gives them in different places.

“Aβ1-42: amyloid β peptide 1-42, control peptide and comparison immunogen”: in data set [1] (Time 0 hr), the “alpha (secondary structure by CD)” value stood at 9%, the “beta-sheet (secondary structure by CD)” value was determined as 36% and the “random (secondary structure by CD)” value is listed as 55%. Besides, in data set [1] (Time 24 hr), the “alpha (secondary structure by CD)” value worked out at 9%, the “beta-sheet (secondary structure by CD)” value is listed as 40% and the “random (secondary structure by CD)” value came out at 51%. In data set [1] (Time 96 hr), the “alpha (secondary structure by CD)” value was determined as 5%, the “beta-sheet (secondary structure by CD)” value is 55% and the “random (secondary structure by CD)” value is listed as 40%. In the data set with Tg2576 mice, the “radial arm maze skills” value is reported as “had the radial arm maze skills of the positive control”. Further, in data set [2], the “aggregates visible under the microscope in culture wells” value is recorded as “aggregates were visible” and the “toxicity to neuroblastoma cells (MTT)” value is “toxic”.
